Measurements published in patent publication US20240002495A1 (MITSUBISHI TANABE PHARMA, published 2024).
Changes are numbered by the printed parent chain. Where no end group is shown, it is not given here.

T1: recombinant human IL-33 protein (residues 112 to 270) (ILC0701, ATGen Co. Ltd) (human, UniProt O95760 112-270)
T1 construct: bought protein
T1 sequence: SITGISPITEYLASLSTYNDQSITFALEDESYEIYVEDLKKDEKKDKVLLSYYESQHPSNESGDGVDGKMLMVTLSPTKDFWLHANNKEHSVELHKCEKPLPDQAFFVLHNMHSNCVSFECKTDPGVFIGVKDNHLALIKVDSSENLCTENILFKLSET

T2: DQSITFALEDESYEIYVEDL (PEP14) (human, not fully specified)
T2 peptide: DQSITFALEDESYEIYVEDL

T3: EDESYEIYV (human, not fully specified (N-terminus))
T3 construct: synthetic peptide
T3 peptide: EDESYEIYV

T4: LEDESYEIYV (human, not fully specified (N-terminus))
T4 construct: synthetic peptide
T4 peptide: LEDESYEIYV

T5: full-length human IL-33 protein (human, UniProt O95760 1-270)
T5 construct: also called Human IL-33 (Full-Length)
T5 sequence: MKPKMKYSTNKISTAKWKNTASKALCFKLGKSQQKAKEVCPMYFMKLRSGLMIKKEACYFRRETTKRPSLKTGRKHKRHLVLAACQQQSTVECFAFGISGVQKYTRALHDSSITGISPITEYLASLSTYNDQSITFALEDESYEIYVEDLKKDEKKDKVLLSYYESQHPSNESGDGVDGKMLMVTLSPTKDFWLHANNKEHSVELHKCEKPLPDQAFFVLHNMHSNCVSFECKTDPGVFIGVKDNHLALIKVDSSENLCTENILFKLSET

B1: A23-1A05 (IgG) (antibody, V domains shown)
VH: EVQLLESGGGLVQPGGSLRLSCAASGFTFSNYYMHWVRQAPGKGLEWVSSISARSRYHYYADSVKGRFTISRDNSKNTLYLQMNSLRAEDTAVYYCARLATRHNAFDIWGQGTLVTVSS
VL: QSVLTQPPSASGTPGQRVTISCSGSSSNIGNNAVSWYQQLPGTAPKLLIYASNMRVIGVPDRFSGSKSGTSASLAISGLRSEDEADYYCGAWDDSQKALVFGGGTKLTVL
notes: tested as neutral-purified and as alkaline-purified antibody; also called V8; IGN8
B2: A25-2C02 (IgG) (antibody, V domains shown)
VH: B1 VH with R56S, H58I, H103N
VL: B1 VL with N31R, S35N, I57S, G90W, A98V, L99G
notes: tested as neutral-purified and as alkaline-purified antibody; also called V15; IGN15
B3: A25-3H04 (IgG) (antibody, V domains shown)
VH: B1 VH with N31R, R54Q, R56S, Y57H, H58I, K65E, H103Q
VL: B1 VL with N31R, S35N, V56R, I57S, G90S, A98V, L99V
notes: tested as neutral-purified and as alkaline-purified antibody; also called V17; IGN17
B4: A26-1F02 (IgG) (antibody, V domains shown)
VH: B1 VH with R56S, H58L, N104V
VL: B1 VL with S35N, V56R, I57P, G90E, L99V
notes: tested as neutral-purified and as alkaline-purified antibody; also called V18; IGN18

How the values were obtained:
[1] = molecular target: T1, recombinant human IL-33 protein …; assay: KinExA in PBS, alkaline-purified IgG
Procedure: (§1) Mixture samples of a test antibody and a human IL-33 protein (ILC0701, available from ATGen Co. Ltd) were prepared. The human IL-33 protein was titrated to a constant concentration of test antibody (final concentration: several tens of pM to several hundreds of pM) over a wide concentration range of the human IL-33 protein (so that it covered the concentrations of the human IL-33 protein resulting from 12-step serial doubling dilutions, i.e. one- to 2048-fold, with the upper limit of final concentration set to several nM to several tens of nM). The mixture samples were incubated at a room temperature until the antigen-antibody reaction reached equilibrium. After the reaction reached equilibrium, the percentage of free anti-IL-33 antibody in each sample was analyzed using KinExA3200. The values of Kd were calculated by fitting the plot of percentages of anti-IL-33 antibody not bound to the human IL-33 protein (vertical axis) and concentrations of antigen (horizontal axis) to a theoretical formula, using a KinExA data analysis program (KinExA Pro Software v3.5.3, available from Sapidyne Instruments, Inc.). Beads for capturing the anti-IL-33 antibody were prepared by suspending 50 mg of Azlactone beads (Sapidyne) in 1 mL of coating solution (10 μg/mL human IL-33 protein (ILC0701, available from ATGen Co. Ltd), 50 mM sodium carbonate at pH of 9.6) and incubating the solution at a room temperature for one hour. The antibody for detection used was anti-human F(ab)′2-DyLight649 (Jackson, 309-495-006).

[2] = molecular target: T1, recombinant human IL-33 protein …; assay: cell-based or functional assay
[3] = molecular target: T1, recombinant human IL-33 protein …; assay: SPR (Biacore T200), human IL-33 (ILC0701) immobilized on CM5, Calibration Free Concentration Analysis of the preserved antibody against a control-preserved sample
Procedure: Each alkaline-purified antibody was dissolved in a citrate buffer (50 mM citric acid; 150 mM NaCl (pH: 6.3)) at a concentration of about 10 mg/mL, and was preserved at a temperature of 40° C. for four weeks, to evaluate the preservation stability of each test antibody (IgG). For evaluation of the monomer purity of each antibody after the preservation, monomer purity was measured by size exclusion chromatography analysis (SEC) and microchip capillary SDS electrophoresis (mCE-SDS), and antigen-binding activity was measured by surface plasmon resonance.
In order to confirm the presence of the antigen-binding ability after the preservation, the antigen-binding activity was measured with a surface plasmon resonance system, Biacore T200 (available from GE Healthcare). A human IL-33 protein (ILC0701, available from ATGen Co. Ltd) was immobilized onto a Sensor Chip CM5 (GE Healthcare) (the amount of immobilized protein was about 3000 to 6000 RU) with Amine Coupling Kit (GE Healthcare). Each preserved antibody solution was then diluted to 10-fold with a citric buffer (50 mM citric acid, 150 mM NaCl (pH: 6.3)), and the resulting solution was analyzed to measure the total protein concentration in the solution, using a microvolume spectrophotometer, Astragene II (Astranet Systems, Ltd.) (protein concentration: about 1 mg/mL). The antibody solution after the measurement of the total protein concentration was diluted to 1000-fold with HBS-EP buffer (10 mM HEPES, 150 mM NaCl, 3 mM EDTA, 0.05% (v/v) Surfactant P20 (at pH of 7.4)). The analyte was thereby prepared. The measurement temperature was 25° C. Each analyte was added for 36 seconds at two flow rates of 5 μL/min and 100 μL/min to obtain sensorgrams of the association phase. The sensorgrams were then analyzed by Calibration Free Concentration Analysis using a data analysis program (GE Healthcare, Biacore T200 Evaluation Software v1.0) to determine the concentration of the antibody having antigen-binding activity. As control, each test antibody after preservation at a temperature of 4° C. for four weeks was also analyzed to confirm the antigen-binding activity, to calculate the ratio of antigen-binding activity of each test antibody after the preservation at a temperature of 40° C. for four weeks.

[4] = molecular target: T1, recombinant human IL-33 protein …; assay: KinExA in PBS, neutral-purified IgG
Procedure: Each test antibody (IgG) (“antibody (IgG)” indicates an antibody having a molecular form of IgG; hereinafter, the same representation is used) was analyzed to confirm the affinity with the human IL-33 protein by measuring dissociation constant (Kd) between each test antibody and the human IL-33 protein in PBS by kinetic exclusion assay (KinExA) (KinExA3200, available from Sapidyne Instruments, Inc.). Mixture samples of a test antibody and a human IL-33 protein (ILC0701, available from ATGen Co. Ltd) were prepared. The human IL-33 protein was titrated to a constant concentration of test antibody (final concentration: several tens of pM to several hundreds of pM) over a wide concentration range of the human IL-33 protein (so that it covered the concentrations of the human IL-33 protein resulting from 12-step serial doubling dilutions, i.e. one- to 2048-fold, with the upper limit of final concentration set to several nM to several tens of nM). The mixture samples were incubated at a room temperature until the antigen-antibody reaction reached equilibrium. After the reaction reached equilibrium, the percentage of free anti-IL-33 antibody in each sample was analyzed using KinExA3200. The values of Kd were calculated by fitting the plot of percentages of anti-IL-33 antibody not bound to the human IL-33 protein (vertical axis) and concentrations of antigen (horizontal axis) to a theoretical formula, using a KinExA data analysis program (KinExA Pro Software v3.5.3, available from Sapidyne Instruments, Inc.). Beads for capturing the anti-IL-33 antibody were prepared by suspending 50 mg of Azlactone beads (Sapidyne) in 1 mL of coating solution (10 μg/mL human IL-33 protein (ILC0701, available from ATGen Co. Ltd), 50 mM sodium carbonate at pH of 9.6) and incubating the solution at a room temperature for one hour. The antibody for detection used was anti-human F(ab)′2-DyLight649 (Jackson, 309-495-006).

[5] = molecular target: T2, DQSITFALEDESYEIYVEDL (PEP14); assay: KinExA, alkaline-purified IgG, peptide
Procedure: (§2) The mixture samples were incubated at a room temperature until the antigen-antibody reaction reached equilibrium. After the reaction reached equilibrium, the percentage of free anti-IL-33 antibody in each sample was analyzed using KinExA3200. The values of Kd were calculated by fitting the plot of percentages of anti-IL-33 antibody not bound to the human IL-33 protein (vertical axis) and concentrations of antigen (horizontal axis) to a theoretical formula, using a KinExA data analysis program (KinExA Pro Software v3.5.3, available from Sapidyne Instruments, Inc.). Beads for capturing the anti-IL-33 antibody were prepared by suspending 50 mg of Azlactone beads (Sapidyne) in 1 mL of coating solution (10 μg/mL human IL-33 protein (ILC0701, available from ATGen Co. Ltd), 50 mM sodium carbonate at pH of 9.6) and incubating the solution at a room temperature for one hour. The antibody for detection used was anti-human F(ab)′2-DyLight649 (Jackson, 309-495-006).
(§3) The anti-IL-33 monoclonal antibodies A10-1C04 and A25-3H04 bound to the epitope PEP14 as described in the Example 1. […] These peptides were synthesized, and the affinity with the alkali-purified antibodies was calculated as Kd by the KinExA experiment as in Example 9 (Table 14).

[6] = molecular target: T3, EDESYEIYV; assay: KinExA, alkaline-purified IgG, peptide
Procedure: as §2, §3

[7] = molecular target: T4, LEDESYEIYV; assay: KinExA, alkaline-purified IgG, peptide
Procedure: as §2, §3

[8] = molecular target: T5, full-length human IL-33 protein; assay: KinExA in PBS, alkaline-purified IgG
Procedure: as §1

Kd [1] | IC50 of inhibition of IL-6 production by HUVEC (alkaline-purified IgG, human IL-33 100 ng/mL) [2] | inhibition of IFN-γ production by human PBMC (alkaline-purified IgG 10 ug/mL, IL-33 10 ng/mL, IL-12 10 ng/mL) [2] | inhibition of production of IL-5 and IL-13 by KU-812 cells (alkaline-purified IgG 1 ug/mL; IL-33 3 ng/mL with IL-3 and C5a) [2] | percentage of inhibition (%) of IL-6 production by HUVEC (neutral-purified IgG 1 ug/mL, IL-33 100 ng/mL) [2] | % Active IgG (antigen binding activity after preservation at 40 C for 4 W) [3] | Kd [4] | Kd [5] | Kd [6] | Kd [7] | Kd [8] | Binder
195 pM | 0.27 µg/mL | 97.5% | ≥ 50% | 74% | 102% | 231 pM |  |  |  |  | B1
0.7 pM | 0.19 µg/mL | 98.8% | ≥ 50% | 96% | 100% | 0.72 pM |  |  |  |  | B2
7.7 pM | 0.21 µg/mL | 97.9% | ≥ 50% | 97% | 102% | 5.38 pM | 1.5 pM | 301000 pM | 11000 pM |  | B3
5.3 pM | 0.23 µg/mL | 98.2% | ≥ 50% | 96% | 101% | 10.8 pM |  |  |  | 10.4 pM | B4
